# Ends that are not written are not given here.
# B1: Aβ1-40 murine form (synthetic amyloid-beta peptide 1-40) (peptide, UniProt P12023 672-711, looked up)
# peptide: DAEFGHDSGFEVRHQKLVFFAEDVGSNKGAIIGLMVGGVV
# modifications: also: radioiodinated with Na[125I], position not given here
# notes: domain: Aβ1-40; also called mouse Aβ1-40; murine Aβ1-40
# B2: Mouse receptor for advanced glycation endproduct (RAGE) at the blood-brain barrier (receptor)
# chain: GQNITARIGEPLVLSCKGAPKKPPQQLEWKLNTGRTEAWKVLSPQGGPWDSVAQILPNGSLLLPATGIVDEGTFRCRATNRRGKEVKSNYRVRVYQIPGKPEIVDPASELTASVPNKVGTCVSEGSYPAGTLSWHLDGKLLIPDGKETLVKEETRRHPETGLFTLRSELTVIPTQGGTTHPTFSCSFSLGLPRRRPLNTAPIQLRVREPGPPEGIQLLVEPEGGIVAPGGTVTLTCAISAQPPPQVHWIKDGAPLPLAPSPVLLLPEVGHADEGTYSCVATHPSHGPQESPPVSIRVTETGDEGPAEGSVGESGLGTLALALGILGGLGVVALLVGAILWRKRQPRREERKAPESQEDEEERAELNQSEEAEMPENGAGGP
# notes: Endogenous RAGE on brain microvessels/endothelium of living mice (brain perfusion model); The mice in the experiments were of other strains; also called receptor for advanced glycosylation end products
# Key:
# [1] = biological target: B2; test: in vivo brain perfusion with 125I-Aβ, capillary-depletion, binding to brain microvessels
# Protocol: (§1) Injection of radioisotopes for transport studies. […] When the effects of different unlabeled molecular reagents were tested, those were injected 5 min prior to tracers injection and than simultaneously with radiolabled ligands. At predetermined times within 10 min mice were sacrificed by decapitation, and brain tissue prepared for radioactivity analysis. TCA and HPLC analysis as we described were used to determine molecular forms of uptake of radiolabeled Aβ by the BBB. Capillary-depletion technique was used to separate micravascular pellet from capillary-depleted brain to quantify in vivo binding to microvessels vs. transport into brain parenchyma, as we reported.
# [2] = biological target: T1, Aβ1-40 human form (synthetic amyloid-beta peptide 1-40) (human, UniProt P05067 672-711, radioiodinated with Na[125I] for the transport and binding studies); test: as above
# T1 construct: domain: Aβ1-40; Stock solutions in DMSO to keep it monomeric; Aβ numbering 1-40 counts on the Aβ peptide, not on APP; also called human Aβ1-40; Amyloid β1-40 peptide
# Protocol: as §1
binding result [1],binding result [2],Binder
binds,–,B1
–,binds,B2
